Results as given in US9347942B2, “Ultrasensitive cell based sensors and uses thereof” (CANVAX BIOTECH SL, priority 2010, dated 2016).

Columns and labels:
Format in all cases: cell-based
SSTR2 = molecular target: T1, SSTR2 (Homo sapiens, UniProt P30874); assay: Agonist-induced exocytosis of granzyme B, sandwich ELISA (Example 9); settings: agonist 10 uM, 60 minutes
T1 construct: the entire human GPCR; mouse immunoglobulin kappa signal peptide (N); expressed in transfected cells
Description: (§1) Human granzyme B was selected as reporter, chimeric promoter of hCMV-MoLV5′LTR as promoter for reporter expression, RBL-2H3 as hemopoyetic cells with professional regulated exocytosis and several GPCRs as exocytosis modulators under the control of Moloney Leukaemia virus 5′-LTR (MoMLV5′LTR, SEQ ID NO:3) as promoter for expression of exocytosis modulators. […] Vectors for expression of granzyme B had the chimeric promoter of hCMV-MoLV5′LTR-GranzymeB-IRES-NGFR with hygromycin resistance for stable transfections. Vectors for GPCR were electroporated first, cells were selected with neomycin at 500 ug/mL for about two weeks and cells were analysed by flow cytometry (Guava Technologies, USA) with anti-cmyc tag antibody (anti-cmyc-FITC, clone 9E10, Sigma-Aldrich, USA) for surface expression. Positive cells were separated by magnetic separation using anti-cmyc monoclonal antibody conjugated to biotin (Miltenyi Biotec, Germany) and streptavidin-MACS (Miltenyi Biotec, Germany). After growing positive fraction of cells was again analysed by flow cytometry with the anti-cmyc tag antibody. Positive cells were individually electroporated with the vector for expression human granzyme B using a microporator (Digital Bio Technology, South Korea) and after 48 hours hygromycin at 1500 ug/mL and neomycin at 500 ug/mL were added to culture for selection. After selection for about 2 weeks cells were analysed by flow cytometry (Guava Technologies, USA) with an antibody against NGFR coupled to FITC. Positive population where magnetically separated by MACS using anti-NGFR-MACS sup.R (Miltenyi Biotec, Germany). Sorted populations were again analysed again by flow cytometry to check both the expression of the GPCR with the anti-cmyc tag antibody and with anti-NGFR antibody to check granzyme B expression. […] GPCRs included were: SSTR2 and CHRM2 as alpha-i coupled GPCRs; AGTR1 and bradykinin type B1 receptor (BDKRB1) as alpha-q coupled GPCRs and AVPR2 as alpha-s coupled GPCR. […] Cells were seeded the night before experiment at 100.000 cells per well of a 96-well microplate in 100 uL of complete cell culture medium. Next day cells were washed with HBSS buffer and incubated with the ligand (agonist) at 10 uM of each GPCR in 30 uL of HBSS buffer at 37 Celsius degrees for 60 minutes and after centrifugation at 400 g for 5 minutes supernatants were analysed for human granzyme B protein by a sandwich ELISA specific for human granzyme B (Ucytech, Netherlands).

AGTR1 = molecular target: T2, AGTR1 (Homo sapiens, UniProt P30556); assay: as above; settings: agonist 10 uM, 60 minutes
T2 construct: the entire human GPCR; mouse immunoglobulin kappa signal peptide (N); expressed in transfected cells
T2 sequence (P30556 2-359): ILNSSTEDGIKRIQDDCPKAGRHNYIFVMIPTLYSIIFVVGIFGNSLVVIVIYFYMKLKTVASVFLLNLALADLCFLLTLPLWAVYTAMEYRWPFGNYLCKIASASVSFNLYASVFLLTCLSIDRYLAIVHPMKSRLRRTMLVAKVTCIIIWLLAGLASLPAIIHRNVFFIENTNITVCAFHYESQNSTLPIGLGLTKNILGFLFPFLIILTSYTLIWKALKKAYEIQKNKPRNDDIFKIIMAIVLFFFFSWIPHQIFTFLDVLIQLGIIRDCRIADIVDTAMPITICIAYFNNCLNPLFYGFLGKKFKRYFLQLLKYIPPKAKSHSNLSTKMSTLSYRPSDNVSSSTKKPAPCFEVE
Description: as §1

[1] = molecular target: T3, bradykinin type B1 receptor (BDKRB1) (Homo sapiens, UniProt P46663); assay: as above; settings: agonist 10 uM, 60 minutes
T3 construct: the entire human GPCR; mouse immunoglobulin kappa signal peptide (N); expressed in transfected cells
T3 sequence (P46663 5-353 limits assumed): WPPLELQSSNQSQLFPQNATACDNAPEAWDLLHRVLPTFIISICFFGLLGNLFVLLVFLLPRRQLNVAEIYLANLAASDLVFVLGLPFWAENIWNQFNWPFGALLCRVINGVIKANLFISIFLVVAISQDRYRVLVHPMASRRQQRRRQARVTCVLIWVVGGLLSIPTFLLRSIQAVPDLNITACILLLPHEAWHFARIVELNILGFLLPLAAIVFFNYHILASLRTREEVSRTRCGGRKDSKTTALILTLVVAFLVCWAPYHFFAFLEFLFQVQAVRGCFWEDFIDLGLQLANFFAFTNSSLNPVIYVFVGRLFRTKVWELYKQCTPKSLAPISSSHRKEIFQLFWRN
Description: as §1

[2] = molecular target: T4, bradykinin type B1 receptor (Homo sapiens, UniProt P46663); assay: Exocytosis time optimisation, granzyme B FRET readout (Example 12); settings: agonist 10 uM
T4 construct: the entire human GPCR; mouse immunoglobulin kappa signal peptide (N); expressed in transfected cells
T4 sequence (P46663 5-353 limits assumed): T3 sequence (P46663 5-353 limits assumed)
Description: An experiment was designed to optimize assay conditions such as: exocytosis time, number of steps needed for assay and uses of cells in suspension. Cells developed in example #9 expressing both a GPCR and human granzyme B were used in this example for optimization of exocytosis time. GPCRs included were CHRM2 (an alpha-i coupled GPCR) and bradykinin type B1 receptor (an alpha-q coupled GPCR). Carbachol and kallinin from Sigma-Aldrich (USA) were used as ligands for CHRM2 and bradykinin type B1 receptor, respectively and used at 10 uM final concentration in HBSS buffer. Cells were seeded the night before experiment at 20.000 cells per well of a 96-well microplate in 100 uL of complete cell culture medium. Next day cells were washed with HBSS buffer and incubated with the ligand (agonist) at 10 uM of each GPCR in 30 uL of HBSS buffer at 37 Celsius degrees for 5, 15, 30 or 60 minutes and after centrifugation at 400 g for 5 minutes supernatants were analysed for human granzyme B activity using FAM-[…]-TAMRA at 1 uM final concentration as the human granzyme B substrate. Released FAM was measured by excitation at 485 nm and emission at 535 nm in a BMG Labtech microplate fluorimeter in 96 well microplates. Microplates were incubated at 37 Celsius degrees on the reader and were kinetically read at 0, 15, 30, 45 and 60 minutes. Control wells with substrate only in HBSS buffer were included to subtract autofluorescence of substrates to both cells treated with ligands and to cells treated with HBSS buffer only. […] The signal to background is lower at longer exocytosis times due to the higher increase in basal release than the increase in specific signal after the first 5 to 15 minutes. Thus, any exocytosis time from probably less than 5 minutes to at least 60 minutes may be used for the methods of the present invention but longer exocytosis times produce a sensor with a lower signal to background, exocytosis is nearly complete at 5 minutes and signal to background is good for a robust sensor.

[3] = 100.000 cells, dilution 2250, after subtraction of 0.2 blank

T1 sequence (P30874 2-369): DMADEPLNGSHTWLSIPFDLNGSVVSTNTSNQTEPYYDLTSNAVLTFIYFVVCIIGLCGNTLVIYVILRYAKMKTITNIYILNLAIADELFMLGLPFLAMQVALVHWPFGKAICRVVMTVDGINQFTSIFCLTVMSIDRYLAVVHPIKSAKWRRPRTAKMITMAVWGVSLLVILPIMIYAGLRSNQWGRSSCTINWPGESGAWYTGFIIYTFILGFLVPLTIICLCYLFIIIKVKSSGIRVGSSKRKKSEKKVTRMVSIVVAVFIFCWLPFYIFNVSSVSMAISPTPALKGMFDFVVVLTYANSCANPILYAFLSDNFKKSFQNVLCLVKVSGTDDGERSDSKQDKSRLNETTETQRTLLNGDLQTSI

For `CC(C)[C@@H]1NC(=O)[C@H](CCCCN)NC(=O)[C@@H](Cc2c[nH]c3ccccc23)NC(=O)[C@H](Cc2ccc(O)cc2)NC(=O)[C@H](C)N(C)C(=O)[C@H](Cc2ccccc2)NC1=O` [Seglitide, seglitide], the “Absorbance at maximal dilution of ELISA tested” value (“Absorbance at maximal dilution” below) (SSTR2; [3]) was 2.4 and the “Sensitivity (minimal amount of cells needed)” value (from here on “Sensitivity”) (SSTR2; granzyme B ELISA) was <150 cells.
With angiotensin the “Absorbance at maximal dilution” value (AGTR1; [3]) was 1.8 and the “Sensitivity” value (AGTR1; granzyme B ELISA) was <150 cells.
For kallinin, the “Absorbance at maximal dilution” value [1, 3] was 0.8, the “Sensitivity” value ([1]; granzyme B ELISA) was <150 cells and the “exocytosis, % of maximal” value ([2]; 5 minutes, 20.000 cells) was > 90%. The “signal to background (S/B)” value ([2]; medium taken at 5 to 15 minutes) was 20-22, the “signal to background (S/B)” value ([2]; medium taken at 30 minutes) was 15-17 and the “signal to background (S/B)” value ([2]; medium taken at 60 minutes) was 8-10.
